Results on one protein are retold here after publication PMC9504416, “Functional Characterization of an Arabidopsis Profilin Protein as a Molecular Chaperone under Heat Shock Stress” (Molecules, 2022).

This data set concerns the molecule itself. As to the kind of experiment: native gel or EMSA; 10% native PAGE with silver staining; concentration-dependent aliquots of recombinant protein, incubated at 25 °C for 30 min and centrifuged at 13,000 x g for 15 min. Background: A gel shift assay detects complexes by their altered migration in electrophoresis.

B1: Arabidopsis thaliana profilin-2 (AtPFN2), recombinant (natural protein, UniProt Q42418 1-131, looked up)
chain: MSWQSYVDDHLMCEVEGNHLTHAAIFGQDGSVWAQSSAFPQLKPAEIAGINKDFEEAGHLAPTGLFLGGEKYMVVQGEAGAVIRGKKGPGGVTIKKTTQALVFGIYDEPMTGGQCNLVVERLGDYLIESGL
notes: Profilin-2 (AtPFN2) of Arabidopsis thaliana, amplified by PCR from an A. thaliana cDNA library; single band of 14 kDa on SDS-PAGE; Homo-oligomer of various sizes; The vector pET28(a) probably adds the His tag; no removal of the tag is told; also called Arabidopsis PFN2; source: E. coli BL21 (DE3), pET28(a), purified (HisPur cobalt resin, imidazole elution; SEC)
Take B1: the binding result is “binds”.
